How the values were obtained:
[1] = total lysate western blot; settings: glycan lost
[2] = cell surface ELISA, HA tag, CHO; settings: glycan lost
[3] = cell surface biotinylation, western blot; settings: glycan lost
[4] = calnexin co-immunolabelling intensity correlation (ER retention); settings: glycan lost; control: wild type GIPR

B1: GLP-1R (GLP1R): N63,82,115Q (protein)
parent chain: MAGAPGPLRLALLLLGMVGRAGPRPQGATVSLWETVQKWREYRRQCQRSLTEDPPPATDLFCNRTFDEYACWPDGEPGSFVNVSCPWYLPWASSVPQGHVYRFCTAEGLWLQKDNSSLPWRDLSECEESKRGERSSPEEQLLFLYIIYTVGYALSFSALVIASAILLGFRHLHCTRNYIHLNLFASFILRALSVFIKDAALKWMYSTAAQQHQWDGLLSYQDSLSCRLVFLLMQYCVAANYYWLLVEGVYLYTLLAFSVLSEQWIFRLYVSIGWGVPLLFVVPWGIVKYLYEDEGCWTRNSNMNYWLIIRLPILFAIGVNFLIFVRVICIVVSKLKANLMCKTDIKCRLAKSTLTLIPLLGTHEVIFAFVMDEHARGTLRFIKLFTELSFTSFQGLMVAILYCFVNNEVQLEFRKSWERWRLEHLHIQRDSSMKPLKCPTSSLSSGATAGSSMYTATCQASCS
- expression_or_secretion ([1]; control: wild type GLP-1R-V5): decreases
- localisation_or_trafficking ([2]; control: wild type HA-GLP-1R): decreases
- localisation_or_trafficking ([3]; control: wild type GLP-1R-V5): decreases

B2: GLP-1R (GLP1R): N115Q (protein)
parent chain: MAGAPGPLRLALLLLGMVGRAGPRPQGATVSLWETVQKWREYRRQCQRSLTEDPPPATDLFCNRTFDEYACWPDGEPGSFVNVSCPWYLPWASSVPQGHVYRFCTAEGLWLQKDNSSLPWRDLSECEESKRGERSSPEEQLLFLYIIYTVGYALSFSALVIASAILLGFRHLHCTRNYIHLNLFASFILRALSVFIKDAALKWMYSTAAQQHQWDGLLSYQDSLSCRLVFLLMQYCVAANYYWLLVEGVYLYTLLAFSVLSEQWIFRLYVSIGWGVPLLFVVPWGIVKYLYEDEGCWTRNSNMNYWLIIRLPILFAIGVNFLIFVRVICIVVSKLKANLMCKTDIKCRLAKSTLTLIPLLGTHEVIFAFVMDEHARGTLRFIKLFTELSFTSFQGLMVAILYCFVNNEVQLEFRKSWERWRLEHLHIQRDSSMKPLKCPTSSLSSGATAGSSMYTATCQASCS
- localisation_or_trafficking ([2]; control: wild type HA-GLP-1R): no change

B3: GLP-1R (GLP1R): N63Q (protein)
parent chain: MAGAPGPLRLALLLLGMVGRAGPRPQGATVSLWETVQKWREYRRQCQRSLTEDPPPATDLFCNRTFDEYACWPDGEPGSFVNVSCPWYLPWASSVPQGHVYRFCTAEGLWLQKDNSSLPWRDLSECEESKRGERSSPEEQLLFLYIIYTVGYALSFSALVIASAILLGFRHLHCTRNYIHLNLFASFILRALSVFIKDAALKWMYSTAAQQHQWDGLLSYQDSLSCRLVFLLMQYCVAANYYWLLVEGVYLYTLLAFSVLSEQWIFRLYVSIGWGVPLLFVVPWGIVKYLYEDEGCWTRNSNMNYWLIIRLPILFAIGVNFLIFVRVICIVVSKLKANLMCKTDIKCRLAKSTLTLIPLLGTHEVIFAFVMDEHARGTLRFIKLFTELSFTSFQGLMVAILYCFVNNEVQLEFRKSWERWRLEHLHIQRDSSMKPLKCPTSSLSSGATAGSSMYTATCQASCS
- localisation_or_trafficking ([2]; control: wild type HA-GLP-1R): no change

B4: GLP-1R (GLP1R): N82Q (protein)
parent chain: MAGAPGPLRLALLLLGMVGRAGPRPQGATVSLWETVQKWREYRRQCQRSLTEDPPPATDLFCNRTFDEYACWPDGEPGSFVNVSCPWYLPWASSVPQGHVYRFCTAEGLWLQKDNSSLPWRDLSECEESKRGERSSPEEQLLFLYIIYTVGYALSFSALVIASAILLGFRHLHCTRNYIHLNLFASFILRALSVFIKDAALKWMYSTAAQQHQWDGLLSYQDSLSCRLVFLLMQYCVAANYYWLLVEGVYLYTLLAFSVLSEQWIFRLYVSIGWGVPLLFVVPWGIVKYLYEDEGCWTRNSNMNYWLIIRLPILFAIGVNFLIFVRVICIVVSKLKANLMCKTDIKCRLAKSTLTLIPLLGTHEVIFAFVMDEHARGTLRFIKLFTELSFTSFQGLMVAILYCFVNNEVQLEFRKSWERWRLEHLHIQRDSSMKPLKCPTSSLSSGATAGSSMYTATCQASCS
- localisation_or_trafficking ([2]; control: wild type HA-GLP-1R): no change

B5: GIPR (GIP receptor): N62,77Q (protein)
parent chain: MTTSPILQLLLRLSLCGLLLQRAETGSKGQTAGELYQRWERYRRECQETLAAAEPPSGLACNGSFDMYVCWDYAAPNATARASCPWYLPWHHHVAAGFVLRQCGSDGQWGLWRDHTQCENPEKNEAFLDQRLILERLQVMYTVGYSLSLATLLLALLILSLFRRLHCTRNYIHINLFTSFMLRAAAILSRDRLLPRPGPYLGDQALALWNQALAACRTAQIVTQYCVGANYTWLLVEGVYLHSLLVLVGGSEEGHFRYYLLLGWGAPALFVIPWVIVRYLYENTQCWERNEVKAIWWIIRTPILMTILINFLIFIRILGILLSKLRTRQMRCRDYRLRLARSTLTLVPLLGVHEVVFAPVTEEQARGALRFAKLGFEIFLSSFQGFLVSVLYCFINKEVQSEIRRGWHHCRLRRSLGEEQRQLPERAFRALPSGSGPGEVPTSRGLSSGTLPGPGNEASRELESYC
- expression_or_secretion ([1]; control: wild type GIPR-V5): decreases
- localisation_or_trafficking ([2]; control: wild type HA-GIPR): abolishes
- localisation_or_trafficking ([3]; control: wild type GIPR-V5): abolishes

B6: GIPR (GIP receptor): N77Q (protein)
parent chain: MTTSPILQLLLRLSLCGLLLQRAETGSKGQTAGELYQRWERYRRECQETLAAAEPPSGLACNGSFDMYVCWDYAAPNATARASCPWYLPWHHHVAAGFVLRQCGSDGQWGLWRDHTQCENPEKNEAFLDQRLILERLQVMYTVGYSLSLATLLLALLILSLFRRLHCTRNYIHINLFTSFMLRAAAILSRDRLLPRPGPYLGDQALALWNQALAACRTAQIVTQYCVGANYTWLLVEGVYLHSLLVLVGGSEEGHFRYYLLLGWGAPALFVIPWVIVRYLYENTQCWERNEVKAIWWIIRTPILMTILINFLIFIRILGILLSKLRTRQMRCRDYRLRLARSTLTLVPLLGVHEVVFAPVTEEQARGALRFAKLGFEIFLSSFQGFLVSVLYCFINKEVQSEIRRGWHHCRLRRSLGEEQRQLPERAFRALPSGSGPGEVPTSRGLSSGTLPGPGNEASRELESYC
- localisation_or_trafficking ([2]; control: wild type HA-GIPR): decreases
- localisation_or_trafficking ([3]; control: wild type GIPR-V5): decreases

B7: GIPR (GIP receptor): N62Q (protein)
parent chain: MTTSPILQLLLRLSLCGLLLQRAETGSKGQTAGELYQRWERYRRECQETLAAAEPPSGLACNGSFDMYVCWDYAAPNATARASCPWYLPWHHHVAAGFVLRQCGSDGQWGLWRDHTQCENPEKNEAFLDQRLILERLQVMYTVGYSLSLATLLLALLILSLFRRLHCTRNYIHINLFTSFMLRAAAILSRDRLLPRPGPYLGDQALALWNQALAACRTAQIVTQYCVGANYTWLLVEGVYLHSLLVLVGGSEEGHFRYYLLLGWGAPALFVIPWVIVRYLYENTQCWERNEVKAIWWIIRTPILMTILINFLIFIRILGILLSKLRTRQMRCRDYRLRLARSTLTLVPLLGVHEVVFAPVTEEQARGALRFAKLGFEIFLSSFQGFLVSVLYCFINKEVQSEIRRGWHHCRLRRSLGEEQRQLPERAFRALPSGSGPGEVPTSRGLSSGTLPGPGNEASRELESYC
- localisation_or_trafficking ([2]; control: wild type HA-GIPR): decreases
- localisation_or_trafficking ([3]; control: wild type GIPR-V5): decreases

B8: GIPR (GIP receptor): complete glycosylation-deficient mutant (N62,77Q) (protein)
parent chain: MTTSPILQLLLRLSLCGLLLQRAETGSKGQTAGELYQRWERYRRECQETLAAAEPPSGLACNGSFDMYVCWDYAAPNATARASCPWYLPWHHHVAAGFVLRQCGSDGQWGLWRDHTQCENPEKNEAFLDQRLILERLQVMYTVGYSLSLATLLLALLILSLFRRLHCTRNYIHINLFTSFMLRAAAILSRDRLLPRPGPYLGDQALALWNQALAACRTAQIVTQYCVGANYTWLLVEGVYLHSLLVLVGGSEEGHFRYYLLLGWGAPALFVIPWVIVRYLYENTQCWERNEVKAIWWIIRTPILMTILINFLIFIRILGILLSKLRTRQMRCRDYRLRLARSTLTLVPLLGVHEVVFAPVTEEQARGALRFAKLGFEIFLSSFQGFLVSVLYCFINKEVQSEIRRGWHHCRLRRSLGEEQRQLPERAFRALPSGSGPGEVPTSRGLSSGTLPGPGNEASRELESYC
- localisation_or_trafficking, other: Pearson correlation [4]: increases, about 80% vs almost no correlation
